Test results reported in patent publication US20230227571A1 (University of Pennsylvania, published 2023).
Where a chain is given by its changes, count along the chain named. Names and notes keep the numbering of the source. Values belong to the binder of their own block, whether it stands above or below them.

Key:
[1] = target: T1, human C5 (purified human complement C5, Complement Technology #A120; also C5 in normal human serum) (human, UniProt P01031 19-673; P01031 678-1676); experiment: direct ELISA, plate coated with purified human C5, serially diluted mAb
T1 construct: domain: β chain;domain: α chain; Purified plasma protein bought from Complement Technology; also called hC5
Text: Direct antigen binding ELISA in which mAbs are serially diluted across microtiter plates coated with purified human C5.

[2] = target: T1, human C5 (purified human complement C5, …); experiment: ELISA, plate coated with human C5, anti-human IgG4-HRP detection
Text: A plate was coated with human C5.

T1 sequence (P01031 19-673 limits assumed, chain 1 of 2): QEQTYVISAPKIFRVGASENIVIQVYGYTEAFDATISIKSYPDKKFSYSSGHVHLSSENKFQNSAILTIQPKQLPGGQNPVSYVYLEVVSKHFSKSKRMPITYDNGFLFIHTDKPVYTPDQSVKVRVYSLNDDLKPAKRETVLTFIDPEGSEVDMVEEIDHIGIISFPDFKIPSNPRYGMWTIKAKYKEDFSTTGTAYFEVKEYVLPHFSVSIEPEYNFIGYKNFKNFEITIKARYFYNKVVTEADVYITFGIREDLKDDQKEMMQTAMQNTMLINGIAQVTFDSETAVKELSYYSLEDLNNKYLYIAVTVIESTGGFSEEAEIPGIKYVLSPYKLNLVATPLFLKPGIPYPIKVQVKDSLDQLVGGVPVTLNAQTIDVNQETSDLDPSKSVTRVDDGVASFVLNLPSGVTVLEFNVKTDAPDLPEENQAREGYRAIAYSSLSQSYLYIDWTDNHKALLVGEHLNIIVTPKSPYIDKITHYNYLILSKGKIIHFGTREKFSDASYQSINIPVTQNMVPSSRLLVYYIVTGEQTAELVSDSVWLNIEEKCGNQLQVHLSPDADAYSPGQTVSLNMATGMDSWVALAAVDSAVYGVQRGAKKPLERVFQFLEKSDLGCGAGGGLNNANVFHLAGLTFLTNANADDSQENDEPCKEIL
T1 sequence (P01031 678-1676 limits assumed, chain 2 of 2): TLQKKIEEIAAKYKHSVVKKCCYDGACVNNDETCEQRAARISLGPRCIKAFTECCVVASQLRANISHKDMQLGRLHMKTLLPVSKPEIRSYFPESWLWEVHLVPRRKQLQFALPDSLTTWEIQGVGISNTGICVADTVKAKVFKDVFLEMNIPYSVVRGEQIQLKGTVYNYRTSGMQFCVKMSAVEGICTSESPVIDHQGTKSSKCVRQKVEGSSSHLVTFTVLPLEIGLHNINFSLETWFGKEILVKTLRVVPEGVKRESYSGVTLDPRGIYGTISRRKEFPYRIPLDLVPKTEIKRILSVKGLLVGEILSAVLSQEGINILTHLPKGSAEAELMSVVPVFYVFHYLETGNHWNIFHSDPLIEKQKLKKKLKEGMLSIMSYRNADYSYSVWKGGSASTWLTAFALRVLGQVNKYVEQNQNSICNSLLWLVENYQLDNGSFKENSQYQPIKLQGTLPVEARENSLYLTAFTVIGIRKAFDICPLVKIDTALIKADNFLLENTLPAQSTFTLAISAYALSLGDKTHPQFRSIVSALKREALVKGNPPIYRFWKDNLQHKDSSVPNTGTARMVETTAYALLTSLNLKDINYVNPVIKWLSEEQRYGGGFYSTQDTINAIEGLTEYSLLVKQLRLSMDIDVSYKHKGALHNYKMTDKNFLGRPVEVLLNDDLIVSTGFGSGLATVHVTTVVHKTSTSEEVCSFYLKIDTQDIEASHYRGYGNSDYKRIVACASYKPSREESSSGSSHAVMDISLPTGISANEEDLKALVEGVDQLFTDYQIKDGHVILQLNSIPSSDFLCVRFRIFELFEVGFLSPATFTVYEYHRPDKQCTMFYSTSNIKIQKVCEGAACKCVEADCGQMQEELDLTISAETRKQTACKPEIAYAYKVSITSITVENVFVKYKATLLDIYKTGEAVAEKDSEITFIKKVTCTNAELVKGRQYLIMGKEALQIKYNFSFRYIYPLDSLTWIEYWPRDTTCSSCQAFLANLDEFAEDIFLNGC

- binding result [1]: binds
B2: anti-human C5 mAb 11C5 (antibody, V domains shown)
VH: EVQLVESGGGLVKPGGSLKLSCAASGFTFTTYAMSWVRQTPEKRLEWVATISAGGTYTYYSDNVKGRFTISRDNAKNNLYLQMSHLKSEDTAMFYCARDPDYYGRSPFAYWGQGTLVTVSA
VL: EIVLTQSPATLSVTPGESVSLSCRASQSISNNLQWYQQKSHESPRLLIKYASQSISGIPSRFSGSGSGTDFTLSINSVETEDFGMYFCQQSNSWPLTFGGGTKVELKR
notes: Murine hybridoma mAb; entries may include the leader peptide

- binding result [2]: binds
B4: humanized 2G1 (VH-16901/VL-1901) (antibody, V domains shown)
VH: QVQLVQSGAEVKKPGSSVKVSCKASGYTITDYNLDWVRQAPGQGLEWMGDISPNYGYTIYNQKFKDRVTITADESTSTAYMELSSLRSEDTAVYYCARRDIRYSGNSYKWYFDVWGQGTMVTVSS
VL: DIQLTQSPSFLSASVGDRVTITCRTSKSISKYLAWYQQKPGKAPKLLIYSGSTLQSGVPSRFSGSGSGTEFTLTISSLQPEDFATYYCQQHNEYPYTFGQGTKLEIKT
notes: Human IgG4 mAb with S228P, expressed in CHO cells

- binding result [1]: binds
B5: anti-human C5 mAb 8E1 (antibody, V domains shown)
VH: QVQLKESGPGLVAPSQSLSITCTVSGFPLNNYGIHWVRQPPGKGLEWLAVIWSDGRTTYNSALNSRLSISKDNSKSQVFFKMNSLQTDDTAMYYCARHDGRGDYSMDYWGQGTSVTVSS
VL: ELVMTQSPASLVVSLGQRATISCRASKGVSTSVYSYMHWYQQKPGQPPKLLIYLASNLESGVPARFSGSGSGTDFSLNIHPVEEEDAATYYCQQSGELPLTFGAGTKLELKR
notes: as for B2

Second part, the binder before the results:

B1: anti-human C5 mAb 9G6 (antibody, V domains shown)
VH: QIQLVQSGPELKKPGETVKISCKASGYTFTEYPMHWVKQAPGKSFKWMGILYTDTGEPTYAEEFRGRFAFSLETSASTAYLQINNLKNEDTATYFCVHSGYVGYWGQGTTLTVSS
VL: DIQMTQSPASLSASVGETVTFTCRASEIIYSYLVWYQQKQGKSPQLLVSNAKTLAEGVPSRFSGSGSGTQFSLKINSLQPEDFGSYYCQHYYGNPPTFGGGTKLEIKR
notes: as for B2
- binding result [1]: binds

B3: humanized 2G1 (VH-11801/VL-1901) (antibody, V domains shown)
VH: B4 VH with S16A, I70M, A72T, E74T, S84R, E89D
VL: B4 VL
notes: as for B4
- binding result [2]: binds
